Reference: patent US20030235860A1, “Interactions between AR, ER, TR2, and TR4” (priority 1999, published 2003)

Legend:
ER-ERE = molecular target: T1, ER-ERE (Homo sapiens, UniProt P03372); assay: EMSA with ERE probe; assay type: binding
T1 construct: Human full-length ER was inserted into the EcoRI site of pSG5 to produce pSG5-ER; host or cells: TNT coupled reticulocyte lysate, in vitro translation
T1 sequence (P03372 1-595): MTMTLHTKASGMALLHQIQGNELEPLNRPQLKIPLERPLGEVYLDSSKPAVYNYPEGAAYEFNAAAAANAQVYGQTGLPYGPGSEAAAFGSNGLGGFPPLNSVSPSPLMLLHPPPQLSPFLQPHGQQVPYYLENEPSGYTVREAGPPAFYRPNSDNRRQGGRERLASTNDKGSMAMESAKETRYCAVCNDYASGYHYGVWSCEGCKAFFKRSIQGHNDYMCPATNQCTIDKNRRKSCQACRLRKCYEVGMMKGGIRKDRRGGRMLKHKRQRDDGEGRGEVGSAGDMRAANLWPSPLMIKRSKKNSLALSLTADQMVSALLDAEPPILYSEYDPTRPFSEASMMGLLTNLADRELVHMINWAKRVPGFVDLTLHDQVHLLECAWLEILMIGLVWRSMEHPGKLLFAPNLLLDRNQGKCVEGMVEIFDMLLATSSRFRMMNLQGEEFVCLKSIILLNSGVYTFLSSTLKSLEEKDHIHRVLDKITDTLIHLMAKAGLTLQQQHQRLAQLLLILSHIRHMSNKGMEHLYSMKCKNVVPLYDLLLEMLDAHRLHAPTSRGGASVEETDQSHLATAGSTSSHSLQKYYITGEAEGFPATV

PSA = assay: Northern blot of endogenous PSA in LNCaP cells; assay type: cell-based, human
Description: Total RNA from the DHT-treated transfected LNCaP cells was prepared by the ultracentrifugation method as described. Lee, et al., J: Biol. Chem. 273, 13437-13443 (1998). The probe was obtained from exon 3 of PSA gene and labeled with a-32p dCTP.
To rule out the potential artificial effects linked to transfected reporter assays, the expression of endogenous prostate specific antigen (PSA, an androgen target that is widely used as a marker for prostate cancer progression) in LNCaP cells was measured by Northern blot analysis. Total RNA (25 μg) from LNCaP cells, which were transfected with either pCMX-TR4 or pCMX vector using SuperFect (Qiagen), was applied into a formamide RNA gel, then transferred onto a Nylon membrane, and then hybridized with a 32P-PSA gene fragment from the exon 3. P-actin was used as an internal control. […] The level of secreted PSA protein in the medium measured by ELISA, also confirmed this conclusion. This in vivo TR4-mediated suppressive effect strongly supports the above reporter assays.
Total RNA from transfected LNCaP cells was prepared using TRIZOL reagents (Life Technology) as instructed by manufacturer. The probe was obtained from the PSA gene by PCR and labeled with 32P dCTP. Northern hybridization was performed as described previously [Mu X. M. et al. (2002) J Biol Chem 275:23877-23883].

PR = molecular target: T2, PR (Homo sapiens, UniProt P06401); assay: PR-mediated transactivation (MMTV reporter); assay type: cell-based
T2 construct: expressed in transfected cells; host or cells: H1299 (pSG5-PR)
T2 sequence (P06401 1-933): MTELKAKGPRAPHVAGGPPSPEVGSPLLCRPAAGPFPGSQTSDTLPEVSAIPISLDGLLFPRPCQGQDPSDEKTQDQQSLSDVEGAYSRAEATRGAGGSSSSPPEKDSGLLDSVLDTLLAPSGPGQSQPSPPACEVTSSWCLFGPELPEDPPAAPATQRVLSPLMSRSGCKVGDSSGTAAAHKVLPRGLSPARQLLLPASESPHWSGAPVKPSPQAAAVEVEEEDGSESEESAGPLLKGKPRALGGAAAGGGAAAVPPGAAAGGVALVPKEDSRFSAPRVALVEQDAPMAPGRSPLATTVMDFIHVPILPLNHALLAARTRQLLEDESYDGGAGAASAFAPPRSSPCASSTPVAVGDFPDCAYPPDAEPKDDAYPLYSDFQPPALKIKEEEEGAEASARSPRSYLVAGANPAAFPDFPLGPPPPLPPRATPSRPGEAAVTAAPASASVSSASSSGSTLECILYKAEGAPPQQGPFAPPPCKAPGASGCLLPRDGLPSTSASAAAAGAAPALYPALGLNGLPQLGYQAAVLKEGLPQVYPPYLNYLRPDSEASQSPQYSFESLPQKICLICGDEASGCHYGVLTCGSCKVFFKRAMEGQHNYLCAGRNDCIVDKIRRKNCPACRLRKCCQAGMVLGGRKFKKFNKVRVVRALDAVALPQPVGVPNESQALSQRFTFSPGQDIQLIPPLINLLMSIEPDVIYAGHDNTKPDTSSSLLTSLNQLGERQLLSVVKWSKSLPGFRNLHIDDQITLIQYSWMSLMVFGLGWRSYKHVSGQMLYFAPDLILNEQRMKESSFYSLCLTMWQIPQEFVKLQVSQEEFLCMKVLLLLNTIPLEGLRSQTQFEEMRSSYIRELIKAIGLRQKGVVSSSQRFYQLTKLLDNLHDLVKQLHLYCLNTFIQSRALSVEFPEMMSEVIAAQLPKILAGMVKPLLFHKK

B1: TR2: human testicular orphan nuclear receptor 2, 603 amino acids (protein, UniProt P13056 1-603, looked up)
chain: MATIEEIAHQIIEQQMGEIVTEQQTGQKIQIVTALDHNTQGKQFILTNHDGSTPSKVILARQDSTPGKVFLTTPDAAGVNQLFFTTPDLSAQHLQLLTDNSPDQGPNKVFDLCVVCGDKASGRHYGAVTCEGCKGFFKRSIRKNLVYSCRGSKDCIINKHHRNRCQYCRLQRCIAFGMKQDSVQCERKPIEVSREKSSNCAASTEKIYIRKDLRSPLTATPTFVTDSESTRSTGLLDSGMFMNIHPSGVKTESAVLMTSDKAESCQGDLSTLANVVTSLANLGKTKDLSQNSNEMSMIESLSNDDTSLCEFQEMQTNGDVSRAFDTLAKALNPGESTACQSSVAGMEGSVHLITGDSSINYTEKEGPLLSDSHVAFRLTMPSPMPEYLNVHYIGESASRLLFLSMHWALSIPSFQALGQENSISLVKAYWNELFTLGLAQCWQVMNVATILATFVNCLHNSLQQDKMSTERRKLLMEHIFKLQEFCNSMVKLCIDGYEYAYLKAIVLFSPDHPSLENMEQIEKFQEKAYVEFQDYITKTYPDDTYRLSRLLLRLPALRLMNATITEELFFKGLIGNIRIDSVIPHILKMEPADYNSQIIGHSI
modifications: full-length
notes: human testicular orphan nuclear receptor 2, 603 amino acids
- Intensity of ER-ERE supershift (ER-ERE; increasing amount of TR2, absence or presence of 1 μM E2, Example 1): decreased
- Intensity of ER-ERE complexes (ER-ERE; increasing amounts of TR2, absence or presence of 10 nM E2, Example 2): decreased
- PSA mRNA expression (PSA; LNCaP cells, 10 nM DHT, pCMV-TR2, Example 4): suppresses
- PR-mediated transactivation (MMTV-CAT) (PR; H1299 cells, 10^−8 M progesterone, increasing TR2): little effect
- PR-mediated transcription (MMTV-CAT) (PR; T47D cells, Example 2): marginal effect

B2: TR4: human testicular orphan nuclear receptor 4, SEQ ID NO:16; expressed from plasmid or in vitro translated (protein)
chain: MTSPSPRIQIISTDSAVASPQRIQGSEPASGPLSVFTSLNKEKIVTDQQTGQKIQIVTAVDASGSPKQQFILTSPDGAGTGKVILASPETSSAKQLIFTTSDNLVPGRIQIVTDSASVERLLGKTDVQRPQVVEYCVVCGDKASGRHYGAVSCEGCKGFFKRSVRKNLTYSCRSSQDCIINKHHRNRCQFCRLKKCLEMGMKMESVQSERKPFDVQREKPSNCAASTEKIYIRKDLRSPLIATPTFVADKDGARQTGLLDPGMLVNIQQPLIREDGTVLLATDSKAETSQGALGTLANVVTSLANLSESLNNGDTSEIQPEDQSASEITRAFDTLAKALNTTDSSSSPSLADGIDTSGGGSIHVISRDQSTPIIEVEGPLLSDTHVTFKLTMPSPMPEYLNVHYICESASRLLFLSMHRARSIPAFQGLGQDCNTSLVRACWNELFTLGLAQCAQVMSLSTILAAIVNHLQNSIQEDKLSGDRIKQVMEHIWKLQEFCNSMANWDIDGYEYAYLKAIVLFSPDHPGLTSTSQIEKFQEKAQMELQDYVQKTYSEDTYRLARILVRLPALRLMSSNITEELFFTGLIGNVSIDSIIPYILKMETAEYNGQITGVSL
- ER-[32P]ERE binding band (ER-ERE; increasing amounts of in vitro expressed TR4): reduced
- Expression of endogenous PSA transcript (PSA; LNCaP cells transfected with pCMX-TR4, absence or presence of 10 nM DHT): clearly repress
- PR-mediated MMTV-LUC reporter activity (PR; H1299 cells, 10 nM progesterone, increasing TR4): failed to suppress
